This passage reports protein stability index results from the supplement of paper PMC10567573.

The nature of the data set: protein stability index of a GFP-peptide fusion (GPS, HEK-293T) (PSI 1-6); higher = more stable. Particulars: c terminus: native.
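Note: lentivirally expressed fusion library, cells FACS-sorted into six equal-sized GFP/DsRed ratio bins, PSI computed from sequencing read fractions per bin weighted by bin number.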

B1: SNF8 addP (peptide)
chain: LPALFTDLYSQEITAEEAREALPP
Regarding B1, the protein stability index (parent: NP_009172.2) came to 2.03.

B2: PSMB5 addP (peptide)
chain: DGWIRVSSDNVADLHEKYSGSTPP
Take B2: the protein stability index (parent: NP_002788.1) came to 4.78.

B3: POLD2 addP (peptide)
chain: CQPISFSGFGAEDDDLGGLGLGPP
B3: the protein stability index (parent: NP_006221.1) was 4.45.
